# Source: patent publication WO2021105669A1 (dated 2021)
# B1: 11886 (antibody, V domains shown)
# VH: QSVEESGGRLVTPGTPLTLTCIVSGFSLSNYYMSWVRQVPGKGLEWIGVIGWSGTSSYASWAKGRFTISKTASTTVDLKITSPTTEDTATYFCARVLYIGGGFNYYDAFDPWGPGTLVTVSS
# VL: DVVMTQTPASVSEPVGGTVTIKCQASQSIGSNLAWYQQKPGQPPKLLIYAASTLASGVPSRFKGSGSGTEFTLTISDLECADAATYYCQCTYYDSSYVYNNFGGGTEVVVK
# B2: 11892 (antibody, V domains shown)
# VH: QSMEESGGRLVTPGTPLTLTCTVSGFSLSIYSMSWVRQAPGKGLEWIGIIYLGDRAYYASWAKGRFTISKTSSTTVDLKITSPTTEDTATYFCARVAGYAGYGYAFYDAFDPWGPGTLVTVSS
# VL: DVVMTQTPASVSEPVGGTVTIKCQASQSIGSNLAWYQQKPGQPPKLLIYAASTLASGVPSRFKGSGSGTEFTLTINGVQCDDTATYYCQCTYYANTYVAETFGGGTEVVVK
# B3: 11881 (antibody, V domains shown)
# VH: QSMEESGGRLVTPGTPLTLTCTVSGFSLSIYSMSWVRQAPGKGLEWIGIIYLGDRAYYASWAKGRFTISKTSSTTVDLKITSPTTEDTATYFCARVAGYAGYGYAFYDAFDPWGPGTLVTVSS
# VL: DVVMTQTPASVSEPVGGTVTIKCQASQSIGSNLAWYQQKPGQPPKLLIYAASTLASGVPSRFKGSGSGTEFTLTINGVQCDDTATYYCQCTYYASTYVAETFGGGTEVVVK
# B4: 11889 (antibody, V domains shown)
# VH: QSLEESGGDLVKPGASLTLTCTASGFSFSSSYWICWVRQAPGKGLEWIACIYAGSSGSTYYASWAKGRFTISKTSSTTVTLQMTSLTAADTATYFCATAYAVSAPFGYTLFKYFELWGPGTLVTVSS
# VL: AVVLTQTASPVSAPVGGTVTIKCQASQNIYSDLAWYQQKPGQPPKLLIYDTSNLASGVSSRFKGSRSGTEFTLTISDLECADAATYYCQAYYYSSSSGDTTFGGGTEVVVK
# Target: TAFV GP (YP_003815426.1) (Tai Forest Ebola virus, UniProt Q66810 33-676)
# Experiment: flow cytometry on transiently transfected HEK293 cells
row,Binder,binding result
1,B1,binds
2,B2,binds
3,B3,binds
4,B4,binds
